The values that follow come from publication PMC9682848.

This experiment has as its target lamprey serum spherical lectin (LSSL), native, from lamprey serum (Lampetra japonica (endogenous in lamprey serum)). Kind of experiment: cryo-EM structure; native LSSL purified from serum, 2 μg/μL, vitrified; Titan Krios 300 kV; RELION 3.1.

A word on the stoichiometry N: it is a count of units in the complex or per binding partner. With “lamprey serum spherical lectin (LSSL), native, from lamprey serum (natural protein)”, the stoichiometry N amounted to 3.
